# Literature values in patent US20200354411A1, “Chimeric Molecule for Targeting c-Myc in Cells” (priority 2017, published 2020).
# B1: Omomyc: myc dominant negative peptide able to bind E-Box promoter and prevent c-myc binding, SEQ ID NO: 6 (peptide)
# chain: TEENVKRRTHNVLERQRRNELKRSFFALRDQIPELENNEKAPKVVILKKATAYILSVQAETQKLISEIDLLRKQNEQLKHKLEQLRNSCA
# modifications: Omomyc
# System: A549 cells
# Conditions: shown in the art
molecule,measurement,value
B1,concentration at which treated cells showed apoptosis,10 µM
